This note sets out measurements from patent US20140186363A1 (UNIVERSITY OF ZURICH, published 2014).

For assay [1], the target named is T1, MAGEA3 peptide no 10.
T1 construct: also called MAGEA3 aa 91-110
T1 peptide: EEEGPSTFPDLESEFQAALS
The experiment in a line: peptide ELISA (coated 20mer) [Figure 1]. How it is done:
(§1) 20mer peptides spanning the entire MAGEA3 protein with 10 aa overlaps shared by each adjacent peptide (Peptides&Elephants, Nuthetal, Germany) were used to coat Maxisorp ELISA plates (Nunc, Rochester, N.Y.). As control a 20mer peptide representing amino acids 40-21 from the NY-ESO-1 protein was used (rev). The numbering of amino acids of MAGEA3 is based on SEQ ID No:41.
(§2) Human recombinant antibody was used at a concentration of 1 μg/ml. Bound human antibody was detected using horseradish peroxidase-conjugated goat anti-human IgG Fc-gamma specific antibodies (Jackson ImmunoResearch, Europe Ltd., Cambridgeshire, UK).
(In general: An ELISA detects its analyte on a solid surface through an enzyme-linked reagent.)

Assay [2] has as its target T2, MAGEA3 peptide no 12.
T2 construct: also called MAGEA3 aa 111-130
T2 peptide: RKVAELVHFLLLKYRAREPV
The experiment in a line: peptide ELISA (coated 20mer) [Figure 1]. On the procedure:
as §1, §2

Assay [3] concerns the target T3, MAGEA3 peptide no 13.
T3 construct: also called MAGEA3 aa 121-140
T3 peptide: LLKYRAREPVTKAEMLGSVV
The experiment in a line: peptide ELISA (coated 20mer) [Figure 1]. How it is done: as §1, §2

Assay [4] concerns the target T4, MAGEA3 peptide no 14.
T4 construct: also called MAGEA3 aa 131-150
T4 peptide: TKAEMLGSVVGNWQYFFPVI
The experiment in a line: peptide ELISA (coated 20mer) [Figure 1]. On the procedure:
as §1, §2

The target in assay [5] is T5, MAGEA3 peptide no 15.
T5 construct: also called MAGEA3 aa 141-160
T5 peptide: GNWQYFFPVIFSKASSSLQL
The experiment in a line: peptide ELISA (coated 20mer) [Figure 1]. How it is done:
as §1, §2

In assay [6] the target is T6, MAGEA3 peptide no 16.
T6 construct: also called MAGEA3 aa 151-170
T6 peptide: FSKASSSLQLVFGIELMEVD
The experiment in a line: peptide ELISA (coated 20mer) [Figure 1]. On the procedure:
as §1, §2

The target of assay [7] is T7, MAGEA3 peptide no 17.
T7 construct: also called MAGEA3 aa 161-180
T7 peptide: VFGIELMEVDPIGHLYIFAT
The experiment in a line: peptide ELISA (coated 20mer) [Figure 1]. On the procedure:
as §1, §2

Assay [8] has as its target T8, MAGEA3 peptide no 18.
T8 construct: also called MAGEA3 aa 171-190
T8 peptide: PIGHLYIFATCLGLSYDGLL
The experiment in a line: peptide ELISA (coated 20mer) [Figure 1]. How it is done: as §1, §2

Assay [9] concerns the target T9, MAGEA3 peptide no 2.
T9 construct: also called MAGEA3 aa 11-30
T9 peptide: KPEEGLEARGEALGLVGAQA
The experiment in a line: peptide ELISA (coated 20mer) [Figure 1]. On the procedure: as §1, §2

The target in assay [10] is T10, MAGEA3 peptide no 21.
T10 construct: also called MAGEA3 aa 201-220
T10 peptide: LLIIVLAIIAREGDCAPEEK
The experiment in a line: peptide ELISA (coated 20mer) [Figure 1]. How it is done: as §1, §2

Assay [11] has as its target T11, MAGEA3 peptide no 23.
T11 construct: also called MAGEA3 aa 221-240
T11 peptide: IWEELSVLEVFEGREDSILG
The experiment in a line: peptide ELISA (coated 20mer) [Figure 1]. How it is done:
as §1, §2

Assay [12] deals with T12, MAGEA3 peptide no 24.
T12 construct: also called MAGEA3 aa 231-250
T12 peptide: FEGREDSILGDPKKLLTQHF
The experiment in a line: peptide ELISA (coated 20mer) [Figure 1]. How it is done: as §1, §2

The target of assay [13] is T13, MAGEA3 peptide no 26.
T13 construct: also called MAGEA3 aa 251-270
T13 peptide: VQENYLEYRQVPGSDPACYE
The experiment in a line: peptide ELISA (coated 20mer) [Figure 1]. On the procedure:
as §1, §2

Assay [14] deals with T14, MAGEA3 peptide no 27.
T14 construct: also called MAGEA3 aa 261-280
T14 peptide: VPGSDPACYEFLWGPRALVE
The experiment in a line: peptide ELISA (coated 20mer) [Figure 1]. On the procedure: as §1, §2

In assay [15] the target is T15, MAGEA3 peptide no 28.
T15 construct: also called MAGEA3 aa 271-290
T15 peptide: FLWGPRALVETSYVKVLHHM
The experiment in a line: peptide ELISA (coated 20mer) [Figure 1]. How it is done: as §1, §2

For assay [16], the target named is T16, MAGEA3 peptide no 3.
T16 construct: also called MAGEA3 aa 21-40
T16 peptide: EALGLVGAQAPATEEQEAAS
The experiment in a line: peptide ELISA (coated 20mer) [Figure 1]. How it is done: as §1, §2

In assay [17] the target is T17, MAGEA3 peptide no 30.
T17 construct: also called MAGEA3 aa 291-310
T17 peptide: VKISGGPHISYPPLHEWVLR
The experiment in a line: peptide ELISA (coated 20mer) [Figure 1]. On the procedure:
as §1, §2

Assay [18] addresses T18, MAGEA3 peptide no 4.
T18 construct: also called MAGEA3 aa 31-50
T18 peptide: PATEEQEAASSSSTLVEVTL
The experiment in a line: peptide ELISA (coated 20mer) [Figure 1]. How it is done: as §1, §2

The target of assay [19] is T19, MAGEA3 peptide no 7.
T19 construct: also called MAGEA3 aa 61-80
T19 peptide: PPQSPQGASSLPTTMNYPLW
The experiment in a line: peptide ELISA (coated 20mer) [Figure 1]. On the procedure: as §1, §2

Assay [20] deals with T20, MAGEA3 peptide no 8.
T20 construct: also called MAGEA3 aa 71-90
T20 peptide: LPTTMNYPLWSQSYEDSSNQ
The experiment in a line: peptide ELISA (coated 20mer) [Figure 1]. On the procedure:
as §1, §2

Assay [21] deals with T21, MAGEA3 peptide no 9.
T21 construct: also called MAGEA3 aa 81-100
T21 peptide: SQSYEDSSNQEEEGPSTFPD
The experiment in a line: peptide ELISA (coated 20mer) [Figure 1]. On the procedure:
as §1, §2

Assay [22] addresses T22, MAGEA4 (UniProt P43358 1-317, limits assumed).
T22 construct: also called recombinant MAGEA4-protein; CT1.4
T22 sequence (looked up): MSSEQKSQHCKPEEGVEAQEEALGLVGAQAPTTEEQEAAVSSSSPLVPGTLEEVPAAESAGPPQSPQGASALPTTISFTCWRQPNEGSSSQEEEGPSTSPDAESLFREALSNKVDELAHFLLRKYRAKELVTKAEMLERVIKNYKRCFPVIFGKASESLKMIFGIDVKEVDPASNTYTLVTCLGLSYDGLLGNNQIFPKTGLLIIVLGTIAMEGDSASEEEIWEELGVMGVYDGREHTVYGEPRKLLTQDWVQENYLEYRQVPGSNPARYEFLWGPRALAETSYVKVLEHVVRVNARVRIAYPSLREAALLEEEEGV
The experiment in a line: Western blot of recombinant protein, anti-human IgG-HRP. How it is done:
Recombinant MAGEA3- and recombinant MAGEA4-protein were separated in SDS-PAGE and blotted onto membranes. Membranes were incubated with human antibodies 122G3 or 32H2. Binding of human antibodies to proteins on the membrane was evaluated using an HRP-labeled goat anti human IgG (Jackson Immunoresearch, Milan Analytica AG, Rheinfelden, Switzerland). The results are depicted in FIG. 3.

B1: 34G9 (antibody, V domains shown)
VH: EVQLEESGGDLVQPGGSLRLSCAASGFTFSHYWMHWVRQAPGKGLVWVSRINSDGSSTSYADSVKGRFTISRDNAKNTLYLQMNSLRAEDTAVYYCARIGSDGYNYDFWGQGTLVTVSS
VL: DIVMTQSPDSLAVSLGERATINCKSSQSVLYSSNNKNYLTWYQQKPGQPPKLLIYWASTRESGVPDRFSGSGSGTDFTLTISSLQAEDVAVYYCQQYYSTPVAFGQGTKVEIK
notes: Patient-derived human antibody made recombinantly; also called human monoclonal antibody 34G9
Consider B1, for which the binding result in [1], in assay [2], in assay [3], in [4], in assay [5] and in assay [6] was “no binding (tested: 1 µg/ml)” each time. The binding result in assay [7], in assay [8], in [9], in assay [10], in assay [11] and in assay [12] was “no binding (tested: 1 µg/ml)” throughout. Also, the binding result in assay [13], in [14], in [15], in assay [16], in assay [17] and in [18] was “no binding (tested: 1 µg/ml)” throughout. Also, the binding result in [19] is listed as “no binding (tested: 1 µg/ml)”; in [20], “no binding (tested: 1 µg/ml)”; in [21], “no binding (tested: 1 µg/ml)”; in assay [22], “no binding”.

B2: 102G10 (antibody, V domains shown)
VH: EVQLVESGGGLVKPGGSLRLSCAASGFTFSGNSMNWVRQAPGKGLEWVSSISSSSGYIYYADSVKGRFTVSRDNAKNSLYLQMNSLRAEDTAVYYCATWPVTTARVGYWGQGTLVTVSS
VL: QSVLTQPPSASGTPGQRVTISCSGSSSNIGSNYVYWHQQLPGTAPKLLIYRHDQRPSGVPDRFSGSKSGTSASLAISGLRSEDEADYYCAAWDDSLSAWVFGGGTKLTVL
notes: Patient-derived human antibody made recombinantly; also called human monoclonal antibody 102G10
Take B2: the binding result in [1], in [2], in [3], in [4], in assay [5] and in [6] was “no binding (tested: 1 µg/ml)” each time. In addition, the binding result in assay [7], in [8], in assay [9], in assay [10], in assay [11] and in assay [12] was “no binding (tested: 1 µg/ml)” throughout. The binding result in assay [13], in [14], in assay [15], in assay [16], in assay [17] and in assay [18] was “no binding (tested: 1 µg/ml)” throughout. The binding result in [19] was “no binding (tested: 1 µg/ml)”; in assay [20] it was “no binding (tested: 1 µg/ml)”; in [21], “no binding (tested: 1 µg/ml)”; in assay [22], “no binding”.

B3: 32H2 (antibody, V domains shown)
VH: QVQLVESGGGVVQPGRSLRLSCAASGFTFSSNAMHWVRQAPGKGLEWVAVISHDGSNKYYADSVKGRFTISRDNSKNTLYLQMNSLRAEDTAVYYCARDGSGSYFNLDYWGQGTLVTVSS
VL: QSALTQPASVSGSPGQSITISCTGTSSDVGGYNYVSWYQQHPGKAPKLMIYEVSNRPSGVSNRFSGSKSGNTASLTISGLQAEDEADYYCSSYTSSSTLVFGTGTKVTVL
notes: Patient-derived human antibody made recombinantly; also called human monoclonal antibody 32H2
Turning to B3, the binding result in assay [22] is reported as “no binding”.
